In experiment [1] the target is T1, CTLA-4-His protein (Homo sapiens (Human), UniProt P16410 37-161).
T1 construct: also called CTLA-4-His fusion protein; not shown: His tag
Nature of the experiment: SPR, CTLA-4-His immobilised, HCAb as analyte at 5-160 nM. Background: In SPR one partner is held on a chip, and binding of the other changes the refractive index at the surface.

For experiment [2], the target named is T1, CTLA-4-His protein. The experiment can be described thus: SPR, antibody captured by Fc, CTLA-4-His as analyte.
Experimental: Different concentrations of the BABP samples were prepared starting at 200 nM with 3-fold serial dilution. Each BABP sample was immobilized on the sensor chip through the Fc capture method. Antigen CTLA-4-His was used as the analyte. The dissociation (kd) and association (kₐ) rate constants were obtained using the BIACORE® T200 evaluation software. The apparent equilibrium dissociation constants (KD) were calculated from the ratio of kd over kₐ.
The target of experiment [3] is T2, human PD-1 expressed on CHO cells (human, UniProt Q15116 25-288).
T2 construct: whole, on cells; Also used here for PD-1 on primary T cells (MLR) and on reporter Jurkat cells in the functional rows; also called CHO cells expressing human PD-1
The experiment can be described thus: FACS competition, biotin hPD-L1-Fc on CHO cells expressing human PD-1.
Experimental: The mixture was equilibrated for 30 minutes at room temperature, and washed three times with FACS buffer (PBS containing 1% BSA). PE/Cy5 Streptavidin secondary antibody was then added to the mixtures and incubated for 15 minutes at room temperature. Subsequently, the cells were washed with FACS buffer and analyzed by flow cytometry.

The target in experiment [4] is T3, human CTLA-4 expressed on CHO cells (human, UniProt P16410 37-223).
T3 construct: also called CHO cells expressing human CTLA-4; CTLA-4 expressing CHO cells
The experiment can be described thus: FACS on CHO cells expressing human CTLA-4.
Experimental: (§1) Binding of HCAbs to human CTLA-4 expressed on CHO cells was determined using a fluorescence-activated cell sorting (FACS)-based assay. CHO cells expressing human CTLA-4 were dissociated from adherent culture flasks and mixed with varying concentrations of antibodies (in a 96-well plate). […] The mixture was equilibrated for 30 minutes at room temperature, then washed three times with FACS buffer (PBS containing 1% BSA). Fluorescein isothiocyanate (FITC)-conjugated anti-human κ antibody (Jackson ImmunoResearch) was then added and incubated for 15 minutes at room temperature, serving as a secondary antibody. Cells were washed again with FACS buffer and analyzed by flow cytometry. Data were analyzed with Prism (GraphPad Software, San Diego, Calif.) using non-linear regression, and EC₅₀ values were calculated.
BABP samples were prepared (starting at 1 μM, 3-fold serial dilution with 10 concentrations) as primary antibody for FACS analysis.

The target in the next experiment is T4, PD-1-His protein (UniProt Q15116 25-167, limits assumed).
T4 construct: not shown: His tag
Nature of the experiment: SPR, antibody captured by Fc, PD-1-His as analyte.

Experiment [5] deals with T2, human PD-1 expressed on CHO cells. Nature of the experiment: FACS on CHO cells expressing human PD-1.
Experimental: (§2) CHO cells expressing human PD-1 were dissociated from adherent culture flasks and mixed with varying concentrations of antibodies (both in a 96-well plate). […] Human IgG was used as a negative binding control. The mixture was equilibrated for 30 minutes at room temperature, washed three times with FACS buffer (PBS containing 1% BSA). FITC-conjugated anti-human kappa antibody (Jackson ImmunoResearch) used as secondary antibody was then added and incubated for 15 minutes at room temperature. Cells were washed again with FACS buffer and analyzed by flow cytometry. Data were analyzed with Prism (GraphPad Software, San Diego, Calif.) using non-linear regression, and EC₅₀ values were calculated.
BABP samples were prepared (starting at 1 μM, 3-fold serial dilution with 10 concentrations) as primary antibodies for FACS analysis.
The target in experiment [6] is T5, biotin-labeled hCTLA-4/Fc protein (human, UniProt P16410 37-161, biotin label in the FACS competition assays (sites not given)).
T5 construct: also called CTLA-4 ECD (CTLA-4-Fc); CTLA-4-Fc (GenScript, Z03373-50)
Nature of the experiment: FACS competition, biotin hCTLA-4-Fc on CHO cells expressing human B7-1.

For experiment [7], the target named is T2, human PD-1 expressed on CHO cells. Nature of the experiment: FACS on CHO cells expressing human PD-1. The source holds these as a separate data set.
Experimental: as §2
Experiment [8] concerns the target T3, human CTLA-4 expressed on CHO cells. Nature of the experiment: FACS on CHO cells expressing human CTLA-4. This is another data set of the same source.
Experimental: as §1
For experiment [9], the target named is T1, CTLA-4-His protein. The experiment can be described thus: SPR, antibody immobilised, CTLA-4-His as analyte.

The source of these data is US20190233519A1 (NANJING LEGEND BIOTECH, published 2019).

T4 sequence (Q15116 25-167 limits assumed): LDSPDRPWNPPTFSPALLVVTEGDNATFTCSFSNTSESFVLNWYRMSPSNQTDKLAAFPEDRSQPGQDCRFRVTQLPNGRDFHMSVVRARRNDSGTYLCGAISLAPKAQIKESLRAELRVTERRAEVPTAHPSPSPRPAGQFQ
T1 sequence (P16410 37-161 limits assumed): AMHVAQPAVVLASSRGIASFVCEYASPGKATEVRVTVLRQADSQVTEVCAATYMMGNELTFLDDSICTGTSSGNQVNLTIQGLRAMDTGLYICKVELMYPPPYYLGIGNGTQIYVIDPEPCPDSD
T5 sequence (P16410 37-161): as the sequence (P16410 37-161 limits assumed) above
T2 sequence (Q15116 25-288): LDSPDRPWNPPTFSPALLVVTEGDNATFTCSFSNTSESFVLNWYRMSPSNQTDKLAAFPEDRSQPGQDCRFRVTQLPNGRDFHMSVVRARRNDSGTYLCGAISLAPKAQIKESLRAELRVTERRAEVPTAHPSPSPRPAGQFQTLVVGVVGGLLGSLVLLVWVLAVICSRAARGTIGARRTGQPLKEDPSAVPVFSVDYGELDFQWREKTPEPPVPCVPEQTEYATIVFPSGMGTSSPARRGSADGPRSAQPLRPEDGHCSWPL
T3 sequence (P16410 37-223): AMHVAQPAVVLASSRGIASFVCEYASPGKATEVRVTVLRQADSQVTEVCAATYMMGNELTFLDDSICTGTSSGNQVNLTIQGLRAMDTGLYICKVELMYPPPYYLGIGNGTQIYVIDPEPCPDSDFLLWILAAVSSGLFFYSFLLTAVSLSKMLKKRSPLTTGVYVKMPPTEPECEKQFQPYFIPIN
Experimental for PD-1-His protein: Different concentrations of the BABP samples were prepared starting at 50 nM with 3-fold serial dilution. Each BABP sample was immobilized on the sensor chip through the Fc capture method. Antigen PD-1-His was used as the analyte. The dissociation (kd) and association (kₐ) rate constants were obtained using the BIACORE® T200 evaluation software. The apparent equilibrium dissociation constants (KD) were calculated from the ratio of kd over kₐ.

B1: AS07014 HCAb (Fc fusion)
heavy: QVHLVESGGGSVQAGGSLRLSCAASGYTYSRHCLGWFRQTPGKEREAVATIDSDGSTSYADSVKGRFTISSDNAKNTLYLQMNSLKPEDTAMYYCAIGPNPRYCSGAPNTRGAEHYFGYWAQGTQVTVSS
notes: not shown: human IgG1 Fc
B1: the binding result with CTLA-4-His protein [1] is reported as “binds”.

B2: BCP-35 (Keytruda-Fab VH-CH1-hIgG1 hinge-A34311-CH1-IgG4 Fc, Keytruda-Fab VL-CL-hIgG1 hinge-A34311-CL) (bispecific antibody)
heavy: not shown
light: EIVLTQSPATLSLSPGERATLSCRASKGVSTSGYSYLHWYQQKPGQAPRLLIYLASYLESGVPARFSGSGSGTDFTLTISSLEPEDFAVYYCQHSRDLPLTFGGGTKVEIKRTVAAPSVFIFPPSDEQLKSGTASVVCLLNNFYPREAKVQWKVDNALQSGNSQESVTEQDSKDSTYSLSSTLTLSKADYEKHKVYACEVTHQGLSSPVTKSFNRGECEPKSCDKTHTCPPCPQVKLEESGGGLVLPGESLRLSCEASGRTITTITMGWFRQAPGKERQFVASHSWTDNNPYYADSVKGRFIISRDNAGNRVYLQMHSLEPEDTAVYYCAATARRSFVGRQWYTEARQYDYWGQGTQVTVSSRTVAAPSVFIFPPSDEQLKSGTASVVCLLNNFYPREAKVQWKVDNALQSGNSQESVTEQDSKDSTYSLSSTLTLSKADYEKHKVYACEVTHQGLSSPVTKSFNRGEC
Usually Kd stands for a measure of binding affinity in units of concentration. The low end stands for a tighter complex, the high end for a looser complex. By IC50 is commonly meant the concentration that inhibits the measured activity by half. High values mean weaker potency in that assay, low ones greater potency in that assay. The term EC50 denotes the concentration needed to bring the measured effect to its halfway point. For the molecule B2, the Kd with CTLA-4-His protein [2] is 7.2 nM; in the experiment with PD-1-His protein, 7.3 nM. Further, the IC50 stood at 4.6 nM in [3] and 17.5 nM in [6]. Further, the EC50 in [4] turned out to be 20.4 nM; in experiment [5], 3 nM.

B3: BCP-16 (A34311-hIgG1 hinge-Keytruda) (bispecific antibody)
heavy: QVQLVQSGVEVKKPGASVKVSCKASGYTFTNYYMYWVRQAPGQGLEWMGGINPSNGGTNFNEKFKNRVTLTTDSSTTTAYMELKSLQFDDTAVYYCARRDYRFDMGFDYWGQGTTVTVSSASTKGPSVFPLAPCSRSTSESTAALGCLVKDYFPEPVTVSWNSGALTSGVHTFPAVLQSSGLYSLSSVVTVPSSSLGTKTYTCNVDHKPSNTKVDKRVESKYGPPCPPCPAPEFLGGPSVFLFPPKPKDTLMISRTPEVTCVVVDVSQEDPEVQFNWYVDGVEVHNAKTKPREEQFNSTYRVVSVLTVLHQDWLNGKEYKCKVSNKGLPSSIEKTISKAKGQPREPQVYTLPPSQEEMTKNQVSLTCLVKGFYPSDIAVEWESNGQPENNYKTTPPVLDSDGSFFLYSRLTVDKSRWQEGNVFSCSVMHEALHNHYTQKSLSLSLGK
light: QVKLEESGGGLVLPGESLRLSCEASGRTITTITMGWFRQAPGKERQFVASHSWTDNNPYYADSVKGRFIISRDNAGNRVYLQMHSLEPEDTAVYYCAATARRSFVGRQWYTEARQYDYWGQGTQVTVSSEPKSCDKTHTCPPCPEIVLTQSPATLSLSPGERATLSCRASKGVSTSGYSYLHWYQQKPGQAPRLLIYLASYLESGVPARFSGSGSGTDFTLTISSLEPEDFAVYYCQHSRDLPLTFGGGTKVEIKRTVAAPSVFIFPPSDEQLKSGTASVVCLLNNFYPREAKVQWKVDNALQSGNSQESVTEQDSKDSTYSLSSTLTLSKADYEKHKVYACEVTHQGLSSPVTKSFNRGEC
Consider B3, for which the Kd turned out to be 4.8 nM with CTLA-4-His protein [2] and 3.9 nM with PD-1-His protein. For the same molecule, the IC50 was found to be 8.8 nM in experiment [3] and 8.6 nM in experiment [6]. For the same molecule, the EC50 was found to be 26.6 nM in [4] and 12.2 nM in experiment [5].

B4: AS07189 HCAb (Fc fusion)
heavy: QVQLVESGGGSVQAGGSLRLSCAASGDSPSVNYMGWFRRAPEKQREQREEVASIYPTGGTFYTDSVKGRFTISRDNAKNTLYLQMTALKPEDTAMYYCAAGKWGTDYWGQGTQVIVSS
notes: not shown: human IgG1 Fc
In the case of B4, in the experiment with CTLA-4-His protein [1], the binding result is “binds”.

B5: BCP-36 (Keytruda-scFv-hIgG1 hinge-A34311-CH1-IgG1 Fc, A34311-CL as light chain fusion polypeptide) (bispecific antibody)
heavy: not shown
light: QVKLEESGGGLVLPGESLRLSCEASGRTITTITMGWFRQAPGKERQFVASHSWTDNNPYYADSVKGRFIISRDNAGNRVYLQMHSLEPEDTAVYYCAATARRSFVGRQWYTEARQYDYWGQGTQVTVSSRTVAAPSVFIFPPSDEQLKSGTASVVCLLNNFYPREAKVQWKVDNALQSGNSQESVTEQDSKDSTYSLSSTLTLSKADYEKHKVYACEVTHQGLSSPVTKSFNRGEC
Turning to B5, the Kd was 6.1 nM with CTLA-4-His protein [2] and 8.3 nM in the experiment with PD-1-His protein. The 50% inhibitory concentration (IC50) worked out at 2 nM in [3] and 17.9 nM in experiment [6]. Moreover, the concentration for a half-maximal effect (EC50) in experiment [4] was 26.4 nM; in [5], 1.8 nM.

B6: BCP-17 (Keytruda-hIgG1 hinge-A34311) (bispecific antibody)
heavy: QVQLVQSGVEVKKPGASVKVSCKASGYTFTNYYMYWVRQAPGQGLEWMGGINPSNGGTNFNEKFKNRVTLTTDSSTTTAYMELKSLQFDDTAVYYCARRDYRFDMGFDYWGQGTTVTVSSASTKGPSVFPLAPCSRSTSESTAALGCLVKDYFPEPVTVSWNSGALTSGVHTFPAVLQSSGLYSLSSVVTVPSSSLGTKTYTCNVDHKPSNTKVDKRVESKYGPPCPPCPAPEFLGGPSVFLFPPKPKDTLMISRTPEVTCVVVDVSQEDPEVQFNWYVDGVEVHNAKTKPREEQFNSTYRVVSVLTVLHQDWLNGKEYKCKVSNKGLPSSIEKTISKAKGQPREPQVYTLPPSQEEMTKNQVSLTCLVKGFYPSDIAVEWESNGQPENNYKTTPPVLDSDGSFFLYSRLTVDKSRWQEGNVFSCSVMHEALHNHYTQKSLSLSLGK
light: EIVLTQSPATLSLSPGERATLSCRASKGVSTSGYSYLHWYQQKPGQAPRLLIYLASYLESGVPARFSGSGSGTDFTLTISSLEPEDFAVYYCQHSRDLPLTFGGGTKVEIKRTVAAPSVFIFPPSDEQLKSGTASVVCLLNNFYPREAKVQWKVDNALQSGNSQESVTEQDSKDSTYSLSSTLTLSKADYEKHKVYACEVTHQGLSSPVTKSFNRGECEPKSCDKTHTCPPCPQVKLEESGGGLVLPGESLRLSCEASGRTITTITMGWFRQAPGKERQFVASHSWTDNNPYYADSVKGRFIISRDNAGNRVYLQMHSLEPEDTAVYYCAATARRSFVGRQWYTEARQYDYWGQGTQVTVSS
Regarding B6, the Kd stood at 39.3 nM in the experiment with CTLA-4-His protein [2] and 3.9 nM with PD-1-His protein. For the same molecule, the IC50 in experiment [3] amounted to 4 nM; in experiment [6], 33.3 nM. In addition, the results for the EC50 in experiment [4] and in experiment [5] were 17.7 nM and 2.7 nM, respectively.

B7: BCP-2 (BCP-K311) (Keytruda-9GS-A34311) (bispecific antibody, human IgG4 S228P, kappa)
heavy: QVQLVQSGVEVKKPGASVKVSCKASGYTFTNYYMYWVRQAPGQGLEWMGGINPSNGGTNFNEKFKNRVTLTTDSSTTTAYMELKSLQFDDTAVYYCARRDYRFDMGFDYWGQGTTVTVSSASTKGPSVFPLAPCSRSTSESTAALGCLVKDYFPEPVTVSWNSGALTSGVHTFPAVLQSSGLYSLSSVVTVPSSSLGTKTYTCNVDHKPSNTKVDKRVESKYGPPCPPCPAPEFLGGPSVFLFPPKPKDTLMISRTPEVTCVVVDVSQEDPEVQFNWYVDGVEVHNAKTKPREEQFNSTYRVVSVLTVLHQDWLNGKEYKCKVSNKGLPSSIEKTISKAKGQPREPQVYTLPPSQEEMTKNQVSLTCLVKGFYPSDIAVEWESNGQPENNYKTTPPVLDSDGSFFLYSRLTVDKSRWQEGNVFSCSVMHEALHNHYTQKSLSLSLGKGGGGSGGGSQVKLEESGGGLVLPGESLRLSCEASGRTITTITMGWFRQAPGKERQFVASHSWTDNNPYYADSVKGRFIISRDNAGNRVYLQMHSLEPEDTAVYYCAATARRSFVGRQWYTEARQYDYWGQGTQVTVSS
light: EIVLTQSPATLSLSPGERATLSCRASKGVSTSGYSYLHWYQQKPGQAPRLLIYLASYLESGVPARFSGSGSGTDFTLTISSLEPEDFAVYYCQHSRDLPLTFGGGTKVEIKRTVAAPSVFIFPPSDEQLKSGTASVVCLLNNFYPREAKVQWKVDNALQSGNSQESVTEQDSKDSTYSLSSTLTLSKADYEKHKVYACEVTHQGLSSPVTKSFNRGEC
B7: the Kd is 11 nM with CTLA-4-His protein [2] and 5.3 nM in the experiment with PD-1-His protein. Also, the IC50 is 2.3 nM in [3] and 11.7 nM in [6]. Moreover, the figures for the EC50 in experiment [4] and in experiment [5] were 16.4 nM and 5.2 nM, respectively.

B8: BCP-33 (Keytruda-Fab VH-CH1-hIgG1 hinge-A34311-IgG1 Fc) (bispecific antibody)
heavy: not shown
light: EIVLTQSPATLSLSPGERATLSCRASKGVSTSGYSYLHWYQQKPGQAPRLLIYLASYLESGVPARFSGSGSGTDFTLTISSLEPEDFAVYYCQHSRDLPLTFGGGTKVEIKRTVAAPSVFIFPPSDEQLKSGTASVVCLLNNFYPREAKVQWKVDNALQSGNSQESVTEQDSKDSTYSLSSTLTLSKADYEKHKVYACEVTHQGLSSPVTKSFNRGEC
Consider B8, for which the Kd is 9.2 nM with CTLA-4-His protein [2] and 8.1 nM in the experiment with PD-1-His protein. Further, the IC50 in [3] turned out to be 2 nM; in [6], 26.3 nM. The EC50 in experiment [4] came to 48 nM; in experiment [5], 1.5 nM.

B9: BCP-74 (AS07014VH11-mutated hIgG1 hinge-Keytruda) (bispecific antibody)
heavy: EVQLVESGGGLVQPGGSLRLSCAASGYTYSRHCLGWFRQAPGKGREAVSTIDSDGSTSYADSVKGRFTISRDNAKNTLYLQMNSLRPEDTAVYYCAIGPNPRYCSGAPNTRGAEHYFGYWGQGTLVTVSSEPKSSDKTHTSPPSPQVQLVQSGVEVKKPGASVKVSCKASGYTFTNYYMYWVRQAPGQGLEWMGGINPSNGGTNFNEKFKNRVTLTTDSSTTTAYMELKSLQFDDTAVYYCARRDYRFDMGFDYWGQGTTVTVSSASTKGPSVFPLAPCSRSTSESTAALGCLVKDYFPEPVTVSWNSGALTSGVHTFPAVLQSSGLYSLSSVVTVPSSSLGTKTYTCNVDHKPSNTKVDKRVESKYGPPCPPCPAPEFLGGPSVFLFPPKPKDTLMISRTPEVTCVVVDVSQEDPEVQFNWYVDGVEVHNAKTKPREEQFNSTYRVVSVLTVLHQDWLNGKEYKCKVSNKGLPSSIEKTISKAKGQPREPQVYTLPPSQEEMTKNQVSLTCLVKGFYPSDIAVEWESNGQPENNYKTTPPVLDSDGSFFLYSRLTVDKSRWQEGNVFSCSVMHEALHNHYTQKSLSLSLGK
light: EIVLTQSPATLSLSPGERATLSCRASKGVSTSGYSYLHWYQQKPGQAPRLLIYLASYLESGVPARFSGSGSGTDFTLTISSLEPEDFAVYYCQHSRDLPLTFGGGTKVEIKRTVAAPSVFIFPPSDEQLKSGTASVVCLLNNFYPREAKVQWKVDNALQSGNSQESVTEQDSKDSTYSLSSTLTLSKADYEKHKVYACEVTHQGLSSPVTKSFNRGEC
Turning to B9, the binding result (in experiment [7]; in [8]; in the experiment with CTLA-4-His protein [9]) was “binds” each time.

B10: BCP-75 (AS07189TKDVH11-mutated hIgG1 hinge-Keytruda) (bispecific antibody)
heavy: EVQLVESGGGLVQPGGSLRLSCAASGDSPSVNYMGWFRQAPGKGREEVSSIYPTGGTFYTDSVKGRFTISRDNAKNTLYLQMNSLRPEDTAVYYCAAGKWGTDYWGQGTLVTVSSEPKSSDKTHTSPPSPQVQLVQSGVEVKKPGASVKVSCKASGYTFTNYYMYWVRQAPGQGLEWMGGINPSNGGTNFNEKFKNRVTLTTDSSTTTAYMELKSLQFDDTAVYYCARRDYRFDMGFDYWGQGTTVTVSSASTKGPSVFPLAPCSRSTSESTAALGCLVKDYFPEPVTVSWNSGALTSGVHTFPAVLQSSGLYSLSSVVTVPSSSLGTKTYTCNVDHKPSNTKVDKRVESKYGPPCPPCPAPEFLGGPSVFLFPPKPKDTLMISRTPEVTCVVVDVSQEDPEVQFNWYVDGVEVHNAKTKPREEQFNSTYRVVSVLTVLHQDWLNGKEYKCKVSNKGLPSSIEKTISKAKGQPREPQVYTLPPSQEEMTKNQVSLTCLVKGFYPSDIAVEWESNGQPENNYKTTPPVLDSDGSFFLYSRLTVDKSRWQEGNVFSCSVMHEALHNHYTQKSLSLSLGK
light: EIVLTQSPATLSLSPGERATLSCRASKGVSTSGYSYLHWYQQKPGQAPRLLIYLASYLESGVPARFSGSGSGTDFTLTISSLEPEDFAVYYCQHSRDLPLTFGGGTKVEIKRTVAAPSVFIFPPSDEQLKSGTASVVCLLNNFYPREAKVQWKVDNALQSGNSQESVTEQDSKDSTYSLSSTLTLSKADYEKHKVYACEVTHQGLSSPVTKSFNRGEC
For the molecule B10, the binding result (in experiment [7]; in [8]; in the experiment with CTLA-4-His protein [9]) was “binds” throughout.

B11: BCP-32 (A34311-9GS linker-A34311-9GS linker-Keytruda) (bispecific antibody, human IgG4 S228P, kappa)
heavy: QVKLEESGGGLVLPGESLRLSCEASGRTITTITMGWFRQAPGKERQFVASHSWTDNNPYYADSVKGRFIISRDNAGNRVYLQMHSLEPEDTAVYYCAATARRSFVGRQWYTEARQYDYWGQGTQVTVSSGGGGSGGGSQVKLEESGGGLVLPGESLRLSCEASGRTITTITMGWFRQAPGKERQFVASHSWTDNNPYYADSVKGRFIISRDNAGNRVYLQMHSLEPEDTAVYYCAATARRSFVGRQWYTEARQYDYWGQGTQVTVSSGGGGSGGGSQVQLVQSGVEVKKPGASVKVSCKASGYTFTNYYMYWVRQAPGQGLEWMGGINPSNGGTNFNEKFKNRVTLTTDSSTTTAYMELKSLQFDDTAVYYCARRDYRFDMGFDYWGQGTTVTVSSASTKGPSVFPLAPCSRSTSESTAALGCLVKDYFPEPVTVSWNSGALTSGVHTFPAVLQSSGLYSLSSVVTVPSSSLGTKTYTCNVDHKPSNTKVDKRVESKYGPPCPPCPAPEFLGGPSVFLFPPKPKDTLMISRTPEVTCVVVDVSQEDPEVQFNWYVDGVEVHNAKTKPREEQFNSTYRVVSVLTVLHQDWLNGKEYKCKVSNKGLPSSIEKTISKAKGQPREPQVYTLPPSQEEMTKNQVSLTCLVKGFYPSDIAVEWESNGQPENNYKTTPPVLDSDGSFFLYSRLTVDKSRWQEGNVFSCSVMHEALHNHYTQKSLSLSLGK
light: EIVLTQSPATLSLSPGERATLSCRASKGVSTSGYSYLHWYQQKPGQAPRLLIYLASYLESGVPARFSGSGSGTDFTLTISSLEPEDFAVYYCQHSRDLPLTFGGGTKVEIKRTVAAPSVFIFPPSDEQLKSGTASVVCLLNNFYPREAKVQWKVDNALQSGNSQESVTEQDSKDSTYSLSSTLTLSKADYEKHKVYACEVTHQGLSSPVTKSFNRGEC
As to B11, the Kd in the experiment with CTLA-4-His protein [2] was found to be 4.1 nM; with PD-1-His protein, 7.5 nM. Also, the IC50 in [3] came out at 4.3 nM; in experiment [6], 14.6 nM. Moreover, the EC50 in experiment [4] worked out at 71.7 nM; in [5], 8.1 nM.

B12: BCP-73 (A34311VH11-mutated hIgG1 hinge-Keytruda) (bispecific antibody)
heavy: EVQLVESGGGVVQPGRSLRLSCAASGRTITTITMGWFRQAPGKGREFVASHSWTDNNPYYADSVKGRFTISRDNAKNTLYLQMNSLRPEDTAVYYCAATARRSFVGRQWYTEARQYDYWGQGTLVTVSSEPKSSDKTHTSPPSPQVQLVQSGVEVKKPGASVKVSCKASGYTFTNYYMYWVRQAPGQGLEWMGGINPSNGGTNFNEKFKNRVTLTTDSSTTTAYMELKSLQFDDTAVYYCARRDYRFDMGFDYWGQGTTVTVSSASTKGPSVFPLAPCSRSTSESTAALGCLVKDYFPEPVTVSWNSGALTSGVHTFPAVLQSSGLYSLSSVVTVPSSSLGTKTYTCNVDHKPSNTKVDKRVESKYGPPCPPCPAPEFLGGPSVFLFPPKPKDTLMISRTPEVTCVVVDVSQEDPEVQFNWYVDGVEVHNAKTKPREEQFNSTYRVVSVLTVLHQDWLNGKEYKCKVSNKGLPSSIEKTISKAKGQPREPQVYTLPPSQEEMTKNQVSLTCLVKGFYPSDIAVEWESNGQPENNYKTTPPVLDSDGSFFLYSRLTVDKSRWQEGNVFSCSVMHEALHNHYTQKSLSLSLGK
light: EIVLTQSPATLSLSPGERATLSCRASKGVSTSGYSYLHWYQQKPGQAPRLLIYLASYLESGVPARFSGSGSGTDFTLTISSLEPEDFAVYYCQHSRDLPLTFGGGTKVEIKRTVAAPSVFIFPPSDEQLKSGTASVVCLLNNFYPREAKVQWKVDNALQSGNSQESVTEQDSKDSTYSLSSTLTLSKADYEKHKVYACEVTHQGLSSPVTKSFNRGEC
On to B12, for which the binding result (in [7]; in [8]; in the experiment with CTLA-4-His protein [9]) was “binds” each time.

B13: BCP-31 (A34311-9GS linker-Keytruda) (bispecific antibody, human IgG4 S228P, kappa)
heavy: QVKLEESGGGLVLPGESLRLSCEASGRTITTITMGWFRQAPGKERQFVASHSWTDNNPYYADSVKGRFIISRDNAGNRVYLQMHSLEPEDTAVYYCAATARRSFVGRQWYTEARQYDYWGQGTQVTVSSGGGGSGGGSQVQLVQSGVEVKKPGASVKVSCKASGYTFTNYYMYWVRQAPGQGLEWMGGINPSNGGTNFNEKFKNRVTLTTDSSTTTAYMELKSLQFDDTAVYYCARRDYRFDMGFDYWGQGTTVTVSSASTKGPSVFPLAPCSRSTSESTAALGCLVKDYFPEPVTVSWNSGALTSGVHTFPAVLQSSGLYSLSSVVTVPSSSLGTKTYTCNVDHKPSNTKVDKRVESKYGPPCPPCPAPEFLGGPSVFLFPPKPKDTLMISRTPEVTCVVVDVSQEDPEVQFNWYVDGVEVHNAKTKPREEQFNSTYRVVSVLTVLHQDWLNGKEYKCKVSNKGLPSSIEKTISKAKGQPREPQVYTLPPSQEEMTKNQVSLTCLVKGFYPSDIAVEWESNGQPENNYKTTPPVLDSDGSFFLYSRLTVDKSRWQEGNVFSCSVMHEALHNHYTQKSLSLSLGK
light: QVKLEESGGGLVLPGESLRLSCEASGRTITTITMGWFRQAPGKERQFVASHSWTDNNPYYADSVKGRFIISRDNAGNRVYLQMHSLEPEDTAVYYCAATARRSFVGRQWYTEARQYDYWGQGTQVTVSSGGGGSGGGSEIVLTQSPATLSLSPGERATLSCRASKGVSTSGYSYLHWYQQKPGQAPRLLIYLASYLESGVPARFSGSGSGTDFTLTISSLEPEDFAVYYCQHSRDLPLTFGGGTKVEIKRTVAAPSVFIFPPSDEQLKSGTASVVCLLNNFYPREAKVQWKVDNALQSGNSQESVTEQDSKDSTYSLSSTLTLSKADYEKHKVYACEVTHQGLSSPVTKSFNRGEC
B13: the Kd with CTLA-4-His protein [2] was 4.3 nM; with PD-1-His protein, 8 nM. For the same molecule, the IC50 in experiment [3] stood at 5.7 nM; in [6], 15.3 nM. In addition, the EC50 in experiment [4] is 31.2 nM; in experiment [5], 3.4 nM.
